Drawing on patent CN107042099A, this text covers OD450 for one molecule.

Assay [1] addresses Myc-GST融合蛋白 (Myc-GST fusion protein). The experiment in a line: indirect ELISA, Myc-GST coated at 5 μg/mL, HRP anti-His secondary antibody, heat test at 70℃. Background: An ELISA detects its analyte on a solid surface through an enzyme-linked reagent.
For assay [2] the target is unchanged. The experiment in a line: indirect ELISA, Myc-GST coated at 5 μg/mL, HRP anti-His secondary antibody, heat test at 80℃.
Assay [3] has the same target. The experiment in a line: indirect ELISA, Myc-GST coated at 5 μg/mL, HRP anti-His secondary antibody, heat test at 90℃.

B1: 抗c-Myc标签单域重链抗体 (anti-c-Myc tag single-domain heavy-chain antibody) (VHH, not shown: small tags and cut ends)
VHH: QLQLVESGGGLVRPGESLRLSCDASSSEPPLLAYVVSWFRQVPGKEREGISCSSSSGVRNSYADSVKGRFTISRDNHKNTVYLQMNSLQAEDTAIYYCAAARLGARGCDFREDLQGTWGQGTQVTVSS
As to B1, the OD450 turned out to be 1.4 OD450 in assay [1], 1.2 OD450 in assay [2] and 1 OD450 in assay [3].
